Results as given in US7968692B2, “Elongase genes and uses thereof” (Abbott Laboratories, priority 1998, dated 2011).

What was measured:
S. cerevisiae 334 [1] = experiment: T. aureum elongase TELO1 activity in yeast; format: cell-based, Saccharomyces cerevisiae
Experimental: The constructs pRAT-4-A1 through pRAT-4-D1 were transformed into S. cerevisiae 334 (Hoveland et al., supra) and screened for elongase activity. S. cerevisiae 334 containing the unaltered pYX242 vector was used as a negative control. The cultures were grown for 48 hours at 24° C., in selective media (Ausubel et al., supra), in the presence of 25 (3)M of GLA or EPA. In this study, DGLA or ω3-docosapentaenoic acid (DPA, 22:5n-3), respectively, was the predicted product of the elongase activity. […] This was expected in that the cDNA sequence of pRAT-4-A3 had several stops at the 5′ end of the sequence, which would result in a truncated version of the translated enzyme (FIG. 76). Although the DGLA level was very low for 334(pRAT-4-A2), the GLA level was the lowest in this sample; therefore, the conversion level of the fatty acid to its elongated form was significant at 28.4%. What was not expected was that there was definite substrate specificity among the expressed enzymes. […]
To further confirm the substrate specificity of TELO1p, the recombinant yeast strain 334(pRAT-4-A7) was grown in minimal media containing 25 μM of various PUFAs. […] The levels of these fatty acids were 1.07% (C20:2n-6), 5.84% (DGLA), and 0.76% (ADA), respectively, of the total fatty acids in the lysates of 334(pRAT-4-A7). […] TELO1p is also involved in the elongation of n-3 PUFAs ALA, STA, and EPA (FIG. 88). […] The levels of these fatty acids were 2.71% ETrA, 4.19% (ETA), and 1.99% (DPA), respectively, of the total fatty acids in the strain containing the TELO1 sequence. […] When STA was added as a substrate, there was also an accumulation of DTA in the culture. The level of this fatty acid was 0.74%, which represented 15.0% conversion of ETA, the two-carbon chain elongated product from substrate STA.

S. cerevisiae 334 [2] = experiment: Mouse elongase MELO7 activity in yeast; format: cell-based, Saccharomyces cerevisiae; conditions: for amount of TPA: may not be significant
Experimental: The construct pRAE-87 was transformed into S. cerevisiae 334 (Hoveland et al., supra) and screened for elongase activity. The negative control strain was S. cerevisiae 334 containing pYX242 vector. The cultures were grown for 42-48 hours at 30° C., in selective media (Ausubel et al., supra), in the presence of 25 _M of GLA, AA, STA, EPA, DPA, or ADA. […] The levels of these fatty acids were 4.1% (DGLA), 6.33% (ADA), 3.4% (ETA), and 6.18% (DPA), respectively, of the total fatty acids in the strain containing the pRAE-87 sequence. […] MELO7 protein (MELO7) was not involved in the elongation of ADA. MELO7p also appeared to be involved in further elongation of the fatty acid DPA produced by two-carbon elongation to TPA when EPA was the added substrate, and when DPA was added. However, the small amounts of the product fatty acids (0.27% and 0.25% of TPA) may not be significant.

[3] = 25 μM STA added as a substrate, FIG. 88

B1: TELO1: Thraustochytrium aureum 7091 elongase (SEQ ID NO:7) from plasmid pRAT-4-A7 (protein, listed as Thraustochytrium aureum)
chain: MANSSVWDDVVGRVETGVDQWMDGAKPYALTDGLPMMDVSTMLAFEVGYMAMLLFGIPIMKQMEKPFELKTIKLLHNLFLFGLSLYMCVETIRQAILGGYKVFGNDMEKGNESHAQGMSRIVYVFYVSKAYEFLDTAIMILCKKFNQVSFLHVYHHATIFAIWWAIAKYAPGGDAYFSVILNSFVHTVMYAYYFFSSQGFGFVKPIKPYITTLQMTQFMAMLVQSLYDYLFPCDYPQALVQLLGVYMITLLALFGNFFVQSYLKKPKKSKTN
conversion of AA to ADA (S. cerevisiae 334 [1]; 25 μM AA, FIG. 88): 3.5% | level of ADA, of the total fatty acids (S. cerevisiae 334 [1]; 25 μM AA, FIG. 88): 0.76% | conversion of ALA to ETrA (S. cerevisiae 334 [1]; 25 μM ALA, FIG. 88): 43.3% | level of ETrA, of the total fatty acids (S. cerevisiae 334 [1]; 25 μM ALA, FIG. 88): 2.71% | conversion of EPA to DPA (S. cerevisiae 334 [1]; 25 μM EPA, FIG. 88): 11.5% | level of DPA, of the total fatty acids (S. cerevisiae 334 [1]; 25 μM EPA, FIG. 88): 1.99% | conversion of GLA to DGLA (S. cerevisiae 334 [1]; 25 μM GLA, FIG. 88): 78.6% | level of DGLA, of the total fatty acids (S. cerevisiae 334 [1]; 25 μM GLA, FIG. 88): 5.84% | conversion of LA to C20:2n-6 (S. cerevisiae 334 [1]; 25 μM LA, FIG. 88): 23.2% | level of C20:2n-6, of the total fatty acids (S. cerevisiae 334 [1]; 25 μM LA, FIG. 88): 1.07% | conversion of ETA to DTA (S. cerevisiae 334 [1]; [3]): 15.0% | level of DTA (S. cerevisiae 334 [1]; [3]): 0.74% | conversion of STA to ETA (S. cerevisiae 334 [1]; 25 μM STA, FIG. 88): 85.3% | level of ETA, of the total fatty acids (S. cerevisiae 334 [1]; 25 μM STA, FIG. 88): 4.19% | levels of DPA (S. cerevisiae 334 [1]; EPA added as a substrate, 48 hours at 24° C., FIG. 81): significant levels of DPA

B2: MELO7: second mouse PUFA elongation enzyme (SEQ ID NO:6), homologue of HSELO1, expressed from pRAE-87 (protein, listed as Mus musculus)
chain: MEHFDASLSTYFKAFLGPRDTRVKGWFLLDNYIPTFVCSVIYLLIVWLGPKYMKNRQPFSCRGILQLYNLGLTLLSLYMFYELVTGVWEGKYNFFCQGTRSAGESDMKIIRVLWWYYFSKLIEFMDTFFFILRKNNHQITVLHVYHHATMLNIWWFVMNWVPCGHSYFGATLNSFIHVLMYSYYGLSSIPSMRPYLWWKKYITQGQLVQFVLTIIQTTCGVFWPCSFPLGWLFFQIGYMISLIALFTNFYIQTYNKKGASRRKDHLKGHQNGSVAAVNGHTNSFPSLENSVKPRKQRKD
amount of TPA (S. cerevisiae 334 [2]; DPA was added): 0.25% | amount of TPA (S. cerevisiae 334 [2]; EPA was the added substrate): 0.27% | conversion of AA to ADA (S. cerevisiae 334 [2]; substrate AA, FIG. 60): 36.0% | level of ADA, of the total fatty acids (S. cerevisiae 334 [2]; substrate AA, FIG. 60): 6.33% | elongation of ADA (S. cerevisiae 334 [2]; substrate ADA): not involved | conversion of EPA to DPA (S. cerevisiae 334 [2]; substrate EPA, FIG. 60): 57.4% | level of DPA, of the total fatty acids (S. cerevisiae 334 [2]; substrate EPA, FIG. 60): 6.18% | level of DGLA, of the total fatty acids (S. cerevisiae 334 [2]; substrate GLA, 42-48 hours at 30° C., FIG. 60): 4.1% | conversion of GLA to DGLA (S. cerevisiae 334 [2]; substrate GLA, FIG. 60): 78.7% | conversion of STA to ETA (S. cerevisiae 334 [2]; substrate STA, FIG. 60): 81.0% | level of ETA, of the total fatty acids (S. cerevisiae 334 [2]; substrate STA, FIG. 60): 3.4%
